Results as given in US20210214734A1, “METHODS FOR SELECTIVELY INHIBITING MOLECULAR CHAPERONE CLIENTS AND COMPOSITIONS FOR USE THEREOF” (Research Foundation for the State University of New York, priority 2020, published 2021).
“Also recorded” adds a separate entry of the source. Where no end group is shown, it is not given here. [ ]: non-standard residue; d: D form. Phe(4-F) = N[C@@H](Cc1ccc(F)cc1)C(=O)O

B1: A02 (peptide)
peptide: [Phe(4-F)]GGSPYPGIDLSQVYELLEK
notes: also called peptide A02; Abl02
B2: A01 (peptide)
peptide: LGGGQ[Phe(4-F)]GEVYGGVAVKTLGGGEFLDEAAVMK
notes: also called peptide A01; Abl01
B3: B-Raf-01 (peptide)
peptide: GYSTKPQLAGGGNVTAPTPQG[Phe(4-F)]QHSGS
notes: also called Braf01-pep
B4: B-Raf-02 (peptide)
peptide: FGTVYKGKWGGGG[Phe(4-F)]STKPQLAGGGNVTAPTPQ
notes: also called Braf02-pep

Assays:
GR:Hsp90 = assay: GR dissociation from Hsp90 in 786-O cells; assay type: cell-based
Procedure: Human embryonic kidney (HEK293) and 786-O cells were acquired from the American Type Culture Collection (ATCC). HEK293 cells were grown in Dulbecco's Modified Eagle Medium (DMEM, Millipore-Sigma) and 786-O cells were grown in Roswell Park Memorial Institute (RPMI-1640, Millipore-Sigma) medium supplemented with 10% fetal bovine serum (FBS, Millipore-Sigma) in a CellQ incubator (Panasonic Healthcare) at 37° C. in 5% CO2.
Cultured cells were seeded 24 h prior to treatment. Peptides were added to cells at 50% confluency at the indicated concentrations and incubated for 24 h, followed by protein extraction as described below.
Protein extraction from mammalian cells was carried out using methods previously described. See Woodford et al., Cell Reports, 14, 872-884 (2016). For immunoprecipitation, protein lysates were incubated with Hsp90 antibody for 2 h followed by incubation with protein G agarose (Qiagen) for 2 h at 4° C. Immunopellets were washed 4 times with fresh lysis buffer (20 mM Tris (pH7.4), 100 mM NaCl, 1 mM MgCl2, 0.1% NP40, protease inhibitor cocktail (Roche), and PhosSTOP (Roche)) and eluted with 5× Laemmli buffer. Precipitated proteins were separated by SDS-PAGE and transferred to nitrocellulose membranes. Co-immunoprecipitated proteins were detected by immunoblotting with the indicated antibodies, diluted in 5% non-fat dry milk reconstituted in TBST.

[1] = test system: Hsp90 chaperone complexes (Hsp90, Cdc37, Aha1); assay: 19F NMR binding to proteins of the Hsp90 chaperone system, single and mixed peptides
Procedure: (§1) All the NMR experiments have been recorded at 298° K with a Bruker FT NMR Avance III 600-MHz spectrometer equipped with a 5-mm CryoProbe™ QCI^1H/^19F-^13C/^15N-D quadruple resonance, a shielded z-gradient coil, and the automatic sample handling system such as a SAMPLEJET™ brand sampling system with temperature control.
(§2) ^19F NMR experiments are a well-recognized approach to study the interaction between small molecules or peptides and proteins. […] This is due to the large dynamic range defined as the difference of the NMR measured response in the free and protein-bound states. ^19F R2 filter NMR experiments are among the most sensitive techniques for weak binding detection. […]
(§3) The 5 mM stock solution peptides were prepared in 100% in DMSOd6. […] 1D ^19F NMR experiments were recorded with proton decoupling with the Waltz-16 scheme during the acquisition period with an acquisition time of 0.95 s, a relaxation delay of 30 s. whereas 1D version of the NOESY (nuclear Overhauser effect spectroscopy) pulse sequence with H2O signal presaturation, a mixing time of 10 ms and a relaxation delay of 30 s was used for ^1H NMR experiments.
(§4) For the binding studies R2 filter experiments were recorded with the Carr-Purcell-Meibom-Gill scheme with a time interval of 23.5 ms between the 180° pulses with a loop of 2, an acquisition time of 0.95 s a D1 of 5 s and a number of scans of 512. […]

Aha1 [2] = target: Aha1 (Homo sapiens, UniProt O95433); assay: 19F NMR R2 filter binding to Aha1; settings: cAbl peptides at 10 mM
Sequence of Aha1 (Homo sapiens, UniProt O95433) (O95433 whole entry, species assumed): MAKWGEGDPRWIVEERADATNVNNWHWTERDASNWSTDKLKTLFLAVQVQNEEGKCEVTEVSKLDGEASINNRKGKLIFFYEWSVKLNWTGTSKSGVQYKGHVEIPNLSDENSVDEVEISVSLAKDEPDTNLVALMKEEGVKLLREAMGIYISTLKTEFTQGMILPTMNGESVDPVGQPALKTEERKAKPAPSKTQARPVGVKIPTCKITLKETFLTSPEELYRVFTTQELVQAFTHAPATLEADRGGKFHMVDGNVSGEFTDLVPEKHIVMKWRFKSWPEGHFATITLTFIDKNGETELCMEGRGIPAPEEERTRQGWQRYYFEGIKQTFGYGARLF
Procedure: as §1, §2, §3, §4

Cdc37 = target: T1, Cdc37 (Homo sapiens, UniProt Q16543); assay: 19F NMR R2 filter binding to Cdc37; design: dose or concentration left out as unconfirmed
T1 sequence (Q16543 1-378): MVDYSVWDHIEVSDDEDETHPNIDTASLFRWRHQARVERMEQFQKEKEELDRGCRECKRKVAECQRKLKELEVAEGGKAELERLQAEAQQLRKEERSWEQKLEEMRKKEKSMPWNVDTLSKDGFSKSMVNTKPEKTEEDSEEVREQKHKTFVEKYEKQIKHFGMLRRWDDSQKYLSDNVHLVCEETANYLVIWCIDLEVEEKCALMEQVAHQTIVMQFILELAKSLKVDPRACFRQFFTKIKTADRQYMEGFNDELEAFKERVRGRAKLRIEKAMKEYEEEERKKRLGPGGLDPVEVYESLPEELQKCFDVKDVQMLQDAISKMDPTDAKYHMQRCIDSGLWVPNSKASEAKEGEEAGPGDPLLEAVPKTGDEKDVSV
Procedure: as §1
(§5) ^19F NMR experiments are a well-recognized approach to study the interaction between small molecules or peptides and proteins. […] This is due to the large dynamic range defined as the difference of the NMR measured response in the free and protein-bound states. ^19F R2 filter NMR experiments are among the most sensitive techniques for weak binding detection. See Dalvit et al., Journal of American Chemical Society, 125, 7696-7703 (2003). The transverse relaxation rate R2 is a very sensitive parameter for these studies, due to the large Chemical Shift Anisotropy (CSA) of ^19F nucleus and to the large exchange contribution See Dalvit et al., Journal of American Chemical Society, 125, 7696-7703 (2003); the compounds/peptides that interact with the receptor will show a broadening and intensity reduction in their ^19F NMR signal in presence of the protein
(§6) The 5 mM stock solution peptides were prepared in 100% in DMSOd6. Solubility and purity of the peptides in PBS buffer pH 7.4, 10% D2O (for the lock signal) were checked by ^19F and ^1H NMR spectroscopy. 1D ^19F NMR experiments were recorded with proton decoupling with the Waltz-16 scheme during the acquisition period with an acquisition time of 0.95 s, a relaxation delay of 30 s. whereas 1D version of the NOESY (nuclear Overhauser effect spectroscopy) pulse sequence with H2O signal presaturation, a mixing time of 10 ms and a relaxation delay of 30 s was used for ^1H NMR experiments.
(§7) For the binding studies R2 filter experiments were recorded with the Carr-Purcell-Meibom-Gill scheme with a time interval of 23.5 ms between the 180° pulses with a loop of 2, an acquisition time of 0.95 s a D1 of 5 s and a number of scans of 512. All the ^19F chemical shifts are referenced to the CFCl3 signal in water.

full length human Hsp90 = assay: 19F NMR R2 filter binding to Hsp90; design: 19F NMR signal change in presence of Hsp90 (binding): dose or concentration left out as unconfirmed; settings: 19F R2 filter; peptides tested individually; A01
Procedure: as §1, §5, §6, §7

Human Serum Albumin = target: T2, Human Serum Albumin (human, UniProt P02768 25-609); assay: 19F NMR
T2 construct: also called HSA

Aha1 [3] = target: T3, Aha1 (UniProt O95433 1-338, limits assumed); assay: 19F NMR R2 filter
T3 construct: Protein used in the 19F NMR experiments
T3 sequence (O95433 whole entry): as the sequence (O95433 whole entry, species assumed) above

| Molecule | GR dissociation from Hsp90 (GR:Hsp90) | binding result (Human Serum Albumin) | further results |
| --- | --- | --- | --- |
| TLPCGGTWRIMTGIE F(F)PEMLA (TLPCGGTWRIMTGIE[Phe(4-F)]PEMLA) [GR-01, glucocorticoid receptor mimic peptide] | showed GR dissociation from Hsp90 |  |  |
| YAGYDSSVPDSTWRIMTTLNMGGF(F)PEMLA (YAGYDSSVPDSTWRIMTTLNMGG[Phe(4-F)]PEMLA) [GR-02, glucocorticoid receptor mimic peptide] | showed GR dissociation from Hsp90 |  | binding to members of the Hsp90 chaperone complex by 19F NMR ([1]; Hsp90, Cdc37, Aha1): binds to all the protein; competition among peptides when mixed (19F NMR signal variation vs single peptide) ([1]; peptides mixed together and added to protein solution): No significant difference; binding to Aha1 by 19F NMR (Aha1 [2]): bound to all of the tested proteins; binding to Cdc37 by 19F NMR (Cdc37): highest effect on Cdc37; also recorded: binding effect is higher on CDC37; 19F NMR signal change in presence of Hsp90 (binding) (full length human Hsp90): bound to all of the tested proteins |
| B1 |  | no binding (tested: 40 mM A02 with 10 mM HSA) |  |
| B2 |  | no binding (tested: 40 mM A01 with 10 mM HSA) | binding result (Aha1 [3]): no binding (tested: 10 mM of each cAbl peptide) |
| B3 |  | no binding |  |
| B4 |  | no binding |  |
